The supplement of paper PMC9170038

Test system: MS2 coat protein
Experiment: apparent KD of MS2 coat protein; designed switch direction (-1 OFF switch, 1 ON switch): 1; higher = weaker reporter binding
Method in brief: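 Designed RNA switches were transcribed on Illumina chips by stalled E. coli RNA polymerase and titrated with SNAP-549-labelled MS2 coat protein from 0.7 or 1.5 nM, doubling to 3 µM. Step length ran from 0.8–1.5 h at the lowest concentration to 10–20 min at the highest. The apparent KD is the median over clusters for each design, from curve-fitted normalised cluster fluorescence.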

[1] = input ligand: microRNA oligo, concentration not stated
[2] = Eterna round: R95, input ligand: microRNA oligo, concentration not stated
[3] = Eterna round: R95, input ligand: FMN 200 uM
[4] = Eterna round: R95, input ligand: none

AAUCGUUUGAUAGGAUAUCGCUAUACAUGAGGAUCACCCAUGUUUACCACGCUGGUUUUUCGUACCGAGAAGGAUUCUGAUGAU [JL JR sub007 mod 4] (Eterna round: R96, puzzle: Same State NG 2)
apparent KD of MS2 coat protein (input ligand: FMN 200 uM): 36 nM | apparent KD of MS2 coat protein [1]: 25.4 nM | apparent KD of MS2 coat protein (input ligand: none): 36.1 nM

GCAGGACAUGAGGAUCACCCAUGUUCAAAAUAUUGAGGAUAUGGAUACGGUAUAUCCGAACCAGAAGGCAACCUGC [SS1 Teenbexe 22] (puzzle: Same State 1)
apparent KD of MS2 coat protein [2]: 16.6 nM

AGCUAUUAAUCAGGAUAUAGGGACAUGAGGAUCACCCAUGUAUACAUGAUGAAAUGUGGUCACCUCUAGAAGGGAUUACUAACA [SameState NG2 #42] (Eterna round: R96, puzzle: Same State NG 2)
apparent KD of MS2 coat protein (input ligand: FMN 200 uM): 155 nM | apparent KD of MS2 coat protein [1]: 109 nM | apparent KD of MS2 coat protein (input ligand: none): 178 nM

GGUAGGUUACUACCAAACUACAUGAGGAUCACCCAUGUGUGGGAGGAUAUGGUACCUAUUUGGUACCAGAAGGUCCAAUUAAUU [Fiskers NG3ss - 6] (Eterna round: R96, puzzle: Same State NG 3)
apparent KD of MS2 coat protein (input ligand: FMN 200 uM): 108 nM | apparent KD of MS2 coat protein [1]: 106 nM | apparent KD of MS2 coat protein (input ligand: none): 124 nM

AUCCCAUCGGGAGGAUAUGGAACCUUAUUGGUUCUAGAAGGUCCAACAUGAGGAUCACCCAUGUGGGAGUGGUCUAAUGACCAC [SS NG10LRO01] (Eterna round: R96, puzzle: Same State NG 1)
apparent KD of MS2 coat protein (input ligand: FMN 200 uM): 190 nM | apparent KD of MS2 coat protein [1]: 208 nM | apparent KD of MS2 coat protein (input ligand: none): 414 nM

AACAUGAGGAUCACCCAUGUGGAAUACUGAAGCAGCUCAGGGAAGGAUAUGGUUGACACCCUCGACCAGAAGGUCCAAAUUAAA [Onarar] (Eterna round: R96, puzzle: Same State NG 3)
apparent KD of MS2 coat protein (input ligand: FMN 200 uM): 63.3 nM | apparent KD of MS2 coat protein [1]: 98.2 nM | apparent KD of MS2 coat protein (input ligand: none): 121 nM

GUUACAUGAGGAUCACCCAUGUAUGUGUGGGAGUAAGUGUCUUAGGAUAUCUAGUGUUUAAUUUAAGAGAAGGAAGAUUGUUGU [JMF's solution 53] (Eterna round: R96, puzzle: Same State NG 3)
apparent KD of MS2 coat protein (input ligand: FMN 200 uM): 134 nM | apparent KD of MS2 coat protein [1]: 96.8 nM | apparent KD of MS2 coat protein (input ligand: none): 116 nM

AUAACACUGGCAGGAUAUGGGAAAGGAAGUGUACCAGAAGGGCCAGAACGGCGAUGGACAUGAGGAUCACCCAUGUCUUAGCCU [PowerStrip SSNG 1.4] (Eterna round: R96, puzzle: Same State NG 1)
apparent KD of MS2 coat protein (input ligand: FMN 200 uM): 12.7 nM | apparent KD of MS2 coat protein [1]: 11.4 nM | apparent KD of MS2 coat protein (input ligand: none): 13.9 nM

GGUAUCAGCACAGGAUAUGCUAUCCUUUGGGUAGCAGAAGGGUGGACAUGAGGAUCACCCAUGUGGGUGCCAGGGCGUGAGCCC [JL SSNG1 1.86] (Eterna round: R96, puzzle: Same State NG 1)
apparent KD of MS2 coat protein (input ligand: FMN 200 uM): 426 nM | apparent KD of MS2 coat protein [1]: 75.9 nM | apparent KD of MS2 coat protein (input ligand: none): 323 nM

GCAUGAGAGAUAGGAUAUCGUGUACCUACAUGUGACAUGAGGAUCACCCAUGUGGUAAGUAUGAGCGAGAAGGAUCCGAUAUGU [salish99_SSNG2_r04_1002] (Eterna round: R96, puzzle: Same State NG 2)
apparent KD of MS2 coat protein (input ligand: FMN 200 uM): 26.6 nM | apparent KD of MS2 coat protein [1]: 44.4 nM | apparent KD of MS2 coat protein (input ligand: none): 60.9 nM

CCGAUUUAUGGAGGAUAUGGAGCCUUAUUGGCUCCAGAAGGUCAAUAAACAUGAGGAUCACCCAUGUCGGCGGUCAAUAGACCG [Eli NG1ss - 71] (Eterna round: R96, puzzle: Same State NG 1)
apparent KD of MS2 coat protein (input ligand: FMN 200 uM): 103 nM | apparent KD of MS2 coat protein [1]: 84.4 nM | apparent KD of MS2 coat protein (input ligand: none): 180 nM

UUUGGGUGGCUGGAGGAUAUUCUAGUGGUUACAUGAGGAUCACCCAUGUGUCGCGCGGUUCGCGAGGAGAAGGCUGGCGGCCGUU (puzzle: Same State 2)
apparent KD of MS2 coat protein [2]: 93.3 nM

GUAGCAUACCGAGGAUAUUCAUAUACAUGAGGAUCACCCAUGUUUAUAUAGGCCAAAAGGCCUUGGGAGAAGGCGGAAUGCUAC [Xeonanis - 20 Mod10] (Eterna round: R96, puzzle: Same State NG 2)
apparent KD of MS2 coat protein (input ligand: FMN 200 uM): 12.1 nM | apparent KD of MS2 coat protein [1]: 7.88 nM | apparent KD of MS2 coat protein (input ligand: none): 13 nM

GGUAUCAUCACAGGAUAUGCUAUCCUUUGGGUAGCAGAAGGGUGGAACAUGAGGAUCACCCAUGUGGUGCCAGGGCGUGAGCCC [JL SSNG1 1.89] (Eterna round: R96, puzzle: Same State NG 1)
apparent KD of MS2 coat protein (input ligand: FMN 200 uM): 177 nM | apparent KD of MS2 coat protein [1]: 583 nM | apparent KD of MS2 coat protein (input ligand: none): 1880 nM

AGCUUGUAACAUGAGGAUCACCCAUGUACAAGCUUUUUGCUCGUUUUACCCGGGCCCGGCGAUUACACGGGCCCGGG [Optimized Design] (puzzle: Sensor for hsa-mir-208a version 2)
apparent KD of MS2 coat protein [3]: 10.1 nM | apparent KD of MS2 coat protein [2]: 9.89 nM | apparent KD of MS2 coat protein [4]: 9.67 nM

AUAAAACAUGAGGAUCACCCAUGUCAACAAAGUCGAGGAUAUGGGCAAAUAAAAUAAGAACCAGAAGGCGAAUAUU [salish99_ss1_r3_037] (puzzle: Same State 1)
apparent KD of MS2 coat protein [3]: 31 nM | apparent KD of MS2 coat protein [2]: 382 nM | apparent KD of MS2 coat protein [4]: 750 nM

GUUACAUGAGGAUCACCCAUGUAUGUGUGGGAGUAAGUGUCUUAGGAUAUCUAUUAUUUUAAUUAAGAGAAGGAAGAUUGUUGU [JMF's solution 20] (Eterna round: R96, puzzle: Same State NG 3)
apparent KD of MS2 coat protein (input ligand: FMN 200 uM): 98.6 nM | apparent KD of MS2 coat protein [1]: 113 nM | apparent KD of MS2 coat protein (input ligand: none): 122 nM

CGUCCGGCCUGUGCUGGCCGGAAGCAUGUACAUGAGGAUCACCCAUGUUCAUGUGCAGGCUUUUUGCUCGUCUUGUG [salish99_mir208a_r3_006] (puzzle: Sensor for hsa-mir-208a)
apparent KD of MS2 coat protein [3]: 41.3 nM | apparent KD of MS2 coat protein [2]: 12.4 nM | apparent KD of MS2 coat protein [4]: 39.4 nM

ACAUGAGACCUAGGAUAUUUUGUACCUACAUGUGACAUGAGGAUCACCCAUGUGGUAAGUAUGAGAAAGAAGGAGGAGAUAUGU [Equivalence 21 - Jieux - Same State NG 2] (Eterna round: R96, puzzle: Same State NG 2)
apparent KD of MS2 coat protein (input ligand: FMN 200 uM): 18.1 nM | apparent KD of MS2 coat protein [1]: 30.1 nM | apparent KD of MS2 coat protein (input ligand: none): 36.7 nM

CGAUGAUACUUAGGAAGAAGAGUUGAAGUACAUGAGGAUCACCCAUGUCAGAGCUUUUUGCUCGUCAUGAACAGGAA [JR_SHM208a_Sub006] (puzzle: Sensor for hsa-mir-208a)
apparent KD of MS2 coat protein [3]: 47.9 nM | apparent KD of MS2 coat protein [2]: 27.7 nM | apparent KD of MS2 coat protein [4]: 52.9 nM

AUGCAGCUACCACAGGAUAUACGUGGAUCGACAUGAGGAUCACCCAUGUAUAUCCUAAUAAUUGCGUAGAAGGGUGGUCAGCUGC [Tezaqutete] (puzzle: Same State 2)
apparent KD of MS2 coat protein [2]: 696 nM

UCGGGCGUACUUGCUGACAUGAGGAUCACCCAUGUAAAUGGGAAGGAUAUGGUACCGUUUCGGUACCAGAAGGUCCUGGGUGCU [salish99_SSNG3_r04_309] (Eterna round: R96, puzzle: Same State NG 3)
apparent KD of MS2 coat protein (input ligand: FMN 200 uM): 2270 nM | apparent KD of MS2 coat protein [1]: 674 nM | apparent KD of MS2 coat protein (input ligand: none): 3840 nM

UCUUGGUUUUUGCUCGUUUUUUGUGUUGAACAUGAGGAUCACCCAUGUAUUGUACGGUCCAAUUUGGUGGUAGUCCG [JMF 68] (puzzle: Sensor for hsa-mir-208a)
apparent KD of MS2 coat protein [3]: 40.4 nM | apparent KD of MS2 coat protein [2]: 29.6 nM | apparent KD of MS2 coat protein [4]: 46.9 nM

GCCGGCUGGUGAGGAUAUGGCGCCUUAUUGGUGCCAGAAGGCAUGUCAAUUGACAUGAGGAUCACCCAUGUGUUGUCGUUGGCG [salish99_SSNG1_r04_610] (Eterna round: R96, puzzle: Same State NG 1)
apparent KD of MS2 coat protein (input ligand: FMN 200 uM): 695 nM | apparent KD of MS2 coat protein [1]: 357 nM | apparent KD of MS2 coat protein (input ligand: none): 353 nM

UAUUUAAUCAUAGGAUAUAGUGUGAAAUUUGGACUAGAAGGAUGUAACAUGAGGAUCACCCAUGUGGUAAGUGGGAUACAUUCC [JR_SSNG1_Sub098] (Eterna round: R96, puzzle: Same State NG 1)
apparent KD of MS2 coat protein (input ligand: FMN 200 uM): 110 nM | apparent KD of MS2 coat protein [1]: 75 nM | apparent KD of MS2 coat protein (input ligand: none): 117 nM

GGCAAUAUCACAGGAUAUUGGAAAGGAAGUGUACAAGAAGGGUGAUAGUGCCUCAGCAACAUGAGGAUCACCCAUGUACUGAGC [PowerStrip SSNG 1.29] (Eterna round: R96, puzzle: Same State NG 1)
apparent KD of MS2 coat protein (input ligand: FMN 200 uM): 121 nM | apparent KD of MS2 coat protein [1]: 43.6 nM | apparent KD of MS2 coat protein (input ligand: none): 113 nM

ACUCUCACAGUAGGAUAUGUAGGAUAUGCCUACAUGAGGAUCACCCAUGUAAACAUGGCAGAAGGAUAGAAGGACUUACAUUGG [pwkr ssNG2 2FMN + 1F5.1] (Eterna round: R96, puzzle: Same State NG 2)
apparent KD of MS2 coat protein (input ligand: FMN 200 uM): 495 nM | apparent KD of MS2 coat protein [1]: 577 nM | apparent KD of MS2 coat protein (input ligand: none): 762 nM

AGUAGGGCGUCAUAGGAUAUCCGGAAGAGUACAUGAGGAUCACCCAUGUCACUCCGCCAUGCAGAGGAGAAGGGUGGUGUUGUAC [Biedzage] (puzzle: Same State 2)
apparent KD of MS2 coat protein [3]: 77.6 nM | apparent KD of MS2 coat protein [2]: 36.6 nM | apparent KD of MS2 coat protein [4]: 41 nM

AAAAGAAACACAGGAUAUACCGCGCUUAACGCGGUAGAAGGGUGGGACAUGAGGAUCACCCAUGUGGCCUGAGCGCCAGGCCGC [Uszadi] (Eterna round: R96, puzzle: Same State NG 1)
apparent KD of MS2 coat protein (input ligand: FMN 200 uM): 428 nM | apparent KD of MS2 coat protein [1]: 14.1 nM | apparent KD of MS2 coat protein (input ligand: none): 299 nM

UGGUACAUGGGAGGAUAUCUCAUGGAGACAUGAGGAUCACCCAUGUAGAUCGACGGUAACGUCGGAGAGAAGGCCCAUGUACCU [MOD JL SSNG1 3.70] (Eterna round: R96, puzzle: Same State NG 2)
apparent KD of MS2 coat protein (input ligand: FMN 200 uM): 17.4 nM | apparent KD of MS2 coat protein [1]: 32.6 nM | apparent KD of MS2 coat protein (input ligand: none): 50 nM

GCUAGGAAUAAAGCCAACAUGAGGAUCACCCAUGUAUGUUGGUAGGAUAUCGUUUGCUUUGCAAACGAGAAGGGCUAACCUAGC [JL SSNG3 1.24] (Eterna round: R96, puzzle: Same State NG 3)
apparent KD of MS2 coat protein (input ligand: FMN 200 uM): 74.6 nM | apparent KD of MS2 coat protein [1]: 64.5 nM | apparent KD of MS2 coat protein (input ligand: none): 67.5 nM
